Columns and labels:
[1] = Relaxivity of GPEN-DTES-Gd and GTRI-DTES-Gd, proton relaxation time by 6.35T NMR (in vitro test, Test 1); type: physicochemical; conditions: for R1 (relaxivity on T1): 24° to 26° C., calculated from relaxation times
Description: Relaxivity of GPEN-DTES-Gd and GTRI-DTES-Gd (in vitro test)
An appropriate amount of GPEN-DTES-Gd and GTRI-DTES-Gd were dissolved in distilled water. The relation to water proton exposed to these compounds was determined as a proton relaxation time (T1 and T2, msec) at room temperature (24° to 26° C.) using NMR (6.35T, manufactured by Nihondenshi K. K., Japan).
GPEN-DTES-Gd (2.3 mM) shortened remarkably the T1 value of water about 60 times and the T2 value of water 85 times. And GTRI-DTES-Gd (2.9 mM) shortened remarkably the T1 value of water about 70 times and the T2 value about 85 times. The relaxivity on T1 and T2 [each R1 and R2, (mM.S)^-1 ] were calculated based on the values in Tables 1 and 2.

blood = assay: Relaxation time of GPEN-DTES-Gd in blood in mouse after intravenous administration (ex vivo test, Test 2); design: species or system ICR female mouse; conditions: 0.025 mmol/kg in terms of Gd, 15 minutes after administration
Description: Relaxation time of GPEN-DTES-Gd in blood in mouse after intravenous administration (ex vivo test)
GPEN-DTES-Gd (Gd concentration: 75 mM) (0.025 mmol/kg in terms of Gd) was administered to a thiopental anesthetized ICR female mouse (body weight: 44 g) through the tail vein. At 15 minutes after administration, the blood was taken from the aorta descendence, and the relaxation time (T1, msec) of the blood at room temperature (24° to 26° C.) was determined with a 6.35T NMR apparatus (manufactured by Nihondenshi K. K., Japan).
As a control, blood was taken from the aorta descendence of a thiopental anesthetized ICR female mouse (body weight: 55 g) and, according to the same manner, the relaxation time was determined.

heart = assay: Contrast enhancement of the heart in rat at 1 hour after intravenous administration, MRI (in vivo test, Test 3); design: species or system Sprague-Dawley female rat; conditions: 1 hour after i.v. administration, 0.094 mmol/kg Gd vs 0.1 mmol/kg DTPA-Gd, 1.5T, T1 weighted spin echo
Description: Contrast enhancement of the heart in rat at 1 hour after intravenously administration of GPEN-DTES-Gd (in vivo test)
A solution of GPEN-DTES-Gd (Gd concentration: 75.1 mM) (0.094 mmol/kg in terms of Gd) was administered to a thiopental anesthetized Sprague-Dawley female rat (214 g, 9-weeks old) through a cannula fixed to femoral vein. At 1 hour after administration, the animal was sacrificed by administration of pentobarbital solution (1 ml) through the above cannula, fixed at prone position in the magnetic field of a MRI spectrometer. MRI measurement (transverse sectional view) of the chest region including the heart was carried out.
As a control, DTPA-Gd (MAGNEVIST®) was administered to a Sprague-Dawleyfemale rat (body weight: 204 g, 9-weeks old) through a cannula fixed at femoral vein (0.1 mmol/kg) and the measurement (transverse sectional view) of the chest region including the heart was carried out as described above.
The apparatus was SIGMA (manufactured by GE, U.S.A.) with magnetic field intensity of 1.5T and, as an imaging coil, a 26 cm .phi.bird-cage type head QD coil was used. Imaging was carried out according to spin echo method of T1 weighted (TR/TE, 600/30 msec) under the condition of 10 mm in slice thickness, a resolution of 256×128.

[2] = DTPA-Gd lower than Gd itself; cited from earlier work
[3] = in vivo; cited from earlier work
[4] = 2.3 mM in distilled water, 6.35T, room temperature (24° to 26° C.)

Compound	Shortening of the T1 value of water ([1]; 2.3 mM)	Shortening of the T2 value of water ([1]; 2.3 mM) [times]	T1 relaxation time [1, 4] [ms]	T2 relaxation time [1, 4] [ms]	in vitro relaxation effect ([1]; in words, compared with DTPA-Gd)	T1 relaxivity in water ([1]; magnetic field intensity 6.35T, 25° C.)	R1 (relaxivity on T1) ([1]; water, 6.35T)	T1 relaxivity relative to DTPA-Gd ([1]; water, 6.35T, 25° C.)	T1 relaxation time effect in blood compared with control mouse (blood)	T1 in blood (blood; tail vein, 6.35T, 24° to 26° C.) [ms]	MRI signal intensity / contrast effect in the heart relative to DTPA-Gd (MAGNEVIST®) (heart)	relaxivity relative to Gd itself [2]	excretion into the urine (in words) [3]
(galactosamino-pentamer)-[1-(p-isothiocyanatebenzyl)-diethylenetriaminepentaacetic acid]gadolinate [GPEN-DTES-Gd]	about 60 times	85	55	26	predominantly higher than that of DTPA-Gd	7.6 (mM.S)^-1	7.6 (mM · S)^-1	about two	about 2.3 times	769	about 1.8 times		
O=C([O-])CN(CCN(CC(=O)[O-])CC(=O)O)CCN(CC(=O)[O-])CC(=O)O.[Gd+3] [DTPA-Gd, (Diethylenetriaminepentaacetic acid)gadolinate]							3.9 (mM · S)^-1					about 1/2	rapidly excreted into the urine after administration

Reference: US5422095A, “Low molecular weight polysaccharide complexes for radiation diagnosis” (Nihon Medi-Physics Co., Ltd., priority 1991, dated 1995)
